The text below walks through data of PMC7248865, “Ultrasensitive and Highly Selective Graphene-Based Field-Effect Transistor Biosensor for Anti-Diuretic Hormone Detection”.

In the data set the target is T1, anti-diuretic hormone (ADH, arginine-vasopressin) (UniProt P01185 20-28).
T1 chain: CYFQNCPRG
The data set is described as follows: graphene FET (drain current); 10 ag/mL to 1 pg/mL ADH in PBS; ID 116.26 to 338.64 uA at VG 8 V; sensor LOD 3.55 ag/mL; PBS (or human serum), 10 min incubation per concentration, PBS washes; pH and temperature not stated.

B1: ADH-specific aptamer (ssDNA)
DNA: TCACGTGCATGATAGACGGCGAAGCCGTCGAGTTGCTGTGTGCCGATGCACGTGA
modifications: 5'-amine
Take B1: the binding result was “binds”.
